Assay results as given in patent publication US7049398B1, “Melanocortin metallopeptide constructs, combinatorial libraries and applications” (Palatin Technologies, Inc., priority 1999, dated 2006).
[ ]: non-standard residue; d: D form. The star is where a group is joined. Hydrocinnamoyl = O=C(CCc1ccccc1)*; Tic = O=C(O)[C@@H]1Cc2ccccc2CN1; Nle = CCCC[C@H](N)C(=O)O

Assays:
hMC4-R = target: T1, hMC4-R (Homo sapiens, UniProt P32245); experiment: Competitive inhibition binding assay, 125I-NDP-alpha-MSH, hMC4-R membranes; settings: 0.4 nM 125I-NDP-alpha-MSH
T1 construct: expressed in transfected cells; host or cells: 293 cells
T1 sequence (P32245 whole entry): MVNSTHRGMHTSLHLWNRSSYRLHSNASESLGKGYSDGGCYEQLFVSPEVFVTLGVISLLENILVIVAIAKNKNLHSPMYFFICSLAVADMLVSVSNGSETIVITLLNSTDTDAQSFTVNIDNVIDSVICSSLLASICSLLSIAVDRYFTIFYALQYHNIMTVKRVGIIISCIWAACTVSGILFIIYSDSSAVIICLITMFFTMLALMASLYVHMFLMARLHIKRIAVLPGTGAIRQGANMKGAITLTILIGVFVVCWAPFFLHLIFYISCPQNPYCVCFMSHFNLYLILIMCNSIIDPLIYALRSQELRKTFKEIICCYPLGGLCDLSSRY
Procedure: (§1) Representative Peptides of this Invention. Representative peptides of this invention were made using library and synthesis methods described herein, and selected peptides were tested using a binding assay. […] The peptides were synthesized using conventional peptide synthesis methods, and were complexed with rhenium using the methods described herein.
(§2) The competitive inhibition binding assay was conducted using membranes prepared from hMC4-R and B-16 mouse melanoma cells (containing MC1-R) using 0.4 nM ^125I-NDP-alpha-MSH (New England Nuclear, Boston, Mass., USA) in 50 mM HEPES buffer containing 1 mM MgCl2, 2 mM CaCl2, and 5 mM KCl, at pH 7.2. The assay tube also contained a chosen concentration of the test peptide of this invention, complexed to a rhenium metal ion as indicated, for determining its efficacy in inhibiting the binding of ^125I-NDP-alpha-MSH to its receptor. Non-specific binding was measured by complete inhibition of binding of ^125I-NDP-alpha-MSH in the assay with the presence of 1 μM alpha-MSH. Incubation was for 90 minutes at room temperature, after which the assay mixture was filtered and the membranes washed three times with ice cold buffer. The filter was dried and counted in a gamma counter for remaining radioactivity bound to the membranes. 100% specific binding was defined as the difference in radioactivity (cpm) bound to cell membranes in the absence and presence of 1 μM alpha-MSH. The cpm obtained in presence of test compounds were normalized with respect to 100% specific binding to determine the percent inhibition of ^125I-NDP-alpha MSH binding. […]

[1] = target: T2, MC1-R (B-16 mouse melanoma cells) (Mus musculus, UniProt Q01727); experiment: Competitive inhibition binding assay, 125I-NDP-alpha-MSH, B-16 mouse melanoma cell membranes; settings: 0.4 nM 125I-NDP-alpha-MSH
T2 construct: B-16 mouse melanoma cells (containing MC1-R); endogenous in cells; host or cells: B-16 mouse melanoma cells
T2 sequence (Q01727 whole entry): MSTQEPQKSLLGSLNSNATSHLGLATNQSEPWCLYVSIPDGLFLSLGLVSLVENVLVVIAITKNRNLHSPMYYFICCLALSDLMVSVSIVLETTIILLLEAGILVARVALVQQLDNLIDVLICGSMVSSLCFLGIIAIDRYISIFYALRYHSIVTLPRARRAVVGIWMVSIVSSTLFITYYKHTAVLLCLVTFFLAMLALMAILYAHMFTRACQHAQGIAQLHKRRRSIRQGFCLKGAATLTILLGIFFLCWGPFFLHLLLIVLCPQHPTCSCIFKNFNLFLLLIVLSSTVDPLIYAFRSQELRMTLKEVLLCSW
Procedure: as §1, §2

[2] = system: Human MC4-R or B-16 cells; experiment: cAMP stimulation assay in absence and presence of alpha-MSH; type: cell-based, human; mouse; settings: 1 h 37° C., 0.2 mM IBMX
Procedure: For selected peptides of this invention, a cAMP assay was also performed. Human MC4-R or B-16 cells were grown to confluence in 96 well plates (plating approximately 250,000 cells per well). Identical sets of cells in triplicate were treated with 0.2 mM isobutylmethylxanthine (IBMX) and the chosen concentration of the rhenium metal ion-complexed peptide and the rhenium metal ion-complexed peptide in the presence of 20 nM alpha-MSH. Cells similarly treated but with only 20 nM alpha-MSH served as positive control. A buffer blank, as a negative control, was also included. Incubation was for one hour at 37° C. after which the medium was aspirated and the cells extarted with 150 microliters of HCl. Total cAMP accumulated in 100 microliters of this solution was quantitated using a commercially available low pH cAMP assay kit (R&D Systems) by the procedure specified by the kit supplier. […] The rhenium metal ion-complexed peptide showing cAMP accumulation in the same range as or higher than the positive control (buffer blank in the presence of alpha-MSH) are considered to be agonist ligands. The rhenium metal ion-complexed peptide showing accumulation in the same range as the negative control (buffer blank in the absence of alpha-MSH) are ineffective at the test concentration if the result is similar to the positive control where alpha-MSH is also present in the assay. The rhenium metal ion-complexed peptide showing accumulation in the same range as the negative control are considered to be antagonists if there is inhibition in cAMP when alpha-MSH is present in the assay. Values above the positive control are due to potent agonism, experimental variance or synergistic agonistic effects of rhenium metal ion-complexed peptide and alpha-MSH. […]

[3] = Conc. cut off 1 μM test peptide
[4] = 1 μM test compound + 20 nM alpha-MSH
[5] = Conc. cut off 10 μM, hMC4-R membranes
[6] = Conc. cut off 10 μM, B-16 mouse melanoma cell membranes
[7] = 10 μM test compound + 20 nM alpha-MSH

Row | Substance | % Inhibition MC4-R (hMC4-R; [3]) [%] | % Inhibition MC1-R (B-16) [1, 3] [%] | % Inhibition MC4-R (hMC4-R; [5]) [%] | % Inhibition MC1-R (B-16) [1, 6] [%] | cAMP Accumulation, Presence of α-MSH [2, 4] [pmol/mL] | cAMP Accumulation, Absence of α-MSH ([2]; 1 μM test compound) [pmol/mL] | further results
1 | PL-838: metallopeptide of Table 1 (Ac-HFRCW-NH2; also: ReO[V] metal complex) |  |  | 0 | 35 |  |  | cAMP Accumulation, Presence of α-MSH [2, 7]: 53 pmol/mL; cAMP Accumulation, Absence of α-MSH ([2]; 10 μM test compound): 2 pmol/mL
2 | PL-1265: metallopeptide of Table 1 (Ac-EHGRWC-NH2; also: ReO[V] metal complex) |  |  |  |  | 127 | 3 | % Inhibition MC4-R (hMC4-R; Conc. cut off 1 μM, hMC4-R membranes): 67%; % Inhibition MC1-R (B-16) ([1]; Conc. cut off 1 μM, B-16 mouse melanoma cell membranes): 34%
3 | PL-1859 (Ac-FFC[Tic]K-NH2; also: ReO[V] complex) | −8 | 9 |  |  |  |  | 

Continued, in another order:

Row | % Inhibition MC4-R (hMC4-R; [3]) [%] | % Inhibition MC1-R (B-16) [1, 3] [%] | % Inhibition MC4-R (hMC4-R; [5]) [%] | % Inhibition MC1-R (B-16) [1, 6] [%] | Substance | cAMP Accumulation, Presence of α-MSH [2, 4] [pmol/mL] | cAMP Accumulation, Absence of α-MSH ([2]; 1 μM test compound) [pmol/mL] | further results
4 | 2 | 27 |  |  | PL-1842: metallopeptide of Table 1 (Ac-[Nle]AHRFWC-NH2; also: ReO[V] complex) | 76 | 25 | 
5 | 70 | 78 |  |  | PL-1751: metallopeptide of Table 1 (Ac-HXRWC-NH2; not fully specified (residue 2); printed as Ac-L-His-L-(N-2′naphthalene)Phe-L-Arg-L-Trp-L-Cys-NH2; also: ReO[V] complex) | 96 | 71 | 
6 |  |  | 77 | 86 | PL-1346: metallopeptide of Table 1 (Hydrocinnamoyl-HRCW-NH2; also: ReO[V] metal complex) |  |  | cAMP Accumulation, Presence of α-MSH [2, 7]: 76 pmol/mL; cAMP Accumulation, Absence of α-MSH ([2]; 10 μM test compound): 3 pmol/mL
7 |  |  | 72 | 74 | PL-1364 (Ac-WFHCR-NH2; also: ReO[V] metal complex) |  |  | 
